Test results from publication PMC5181381.

Tests used:
[1] = molecular target: non-lipidated Gβ1γ2 dimer (UniProt P62873); experiment: SEC; purified mini-Gs399 mixed with non-lipidated Gβ1γ2 dimer in an equimolar ratio, on ice 4 h; Superdex-200 10/300; 10 mM HEPES pH 7.5, 100 mM NaCl, 1 mM MgCl2, 1 μM GDP, 0.1 mM TCEP
[2] = molecular target: truncated form of turkey β1-adrenergic receptor, β1AR^∆NC (turkey) (UniProt P07700)
[3] = molecular target: minimally thermostabilised turkey β1AR construct β1AR-84 (turkey) (UniProt P07700)
[4] = molecular target: truncated form of turkey β1-adrenergic receptor, β1AR^∆NC (turkey) (UniProt P07700); remark: listed apart in the source
[5] = molecular target: truncated form of turkey β1-adrenergic receptor, β1AR^∆NC (turkey) (UniProt P07700); experiment: SEC; purified β1AR^∆NC in LMNG mixed with a 1.2-fold molar excess of mini-Gs393, on ice 4 h; Superdex-200 10/300; 10 mM HEPES pH 7.5, 100 mM NaCl, 1 mM MgCl2, 1 μM ascorbic acid, 1 μM isoprenaline, 0.002% LMNG; peak fractions analysed by SDS-PAGE

Substance | stoichiometry N [1] | Apparent Tm of β1AR^∆NC in DDM, measured by ^3H-NE binding (°C) [2] [°C] | fold increase of the isoprenaline affinity of membrane-embedded β1AR-84 (competition with 3H-DHA, 25 μM binding partner, 20°C) [3] [fold] | fold shift of the isoprenaline affinity of membrane-embedded β1AR^∆NC (competition with 3H-DHA, 25 μM binding partner, 20°C) [4] [fold] | stoichiometry N [5]
mini-Gs399 (domain or fragment) | 1 | – | – | – | –
soluble heterotrimeric Gs in the presence of the nanobody Nb35 (from UniProt P63092 1-394; P62873 1-340; P59768 1-71) (complex) | – | 35.8 | 162 | 6 | –
Mini-Gs393 (final mini-Gs construct) (domain or fragment) | – | 34.1 | – | – | 1
